{"source": "paper PMC10164551", "about": "“Structural basis of tRNAPro acceptor stem recognition by a bacterial trans-editing domain”", "target": "T1, ProXp-ala K50A (Caulobacter crescentus, UniProt Q9ABV9 1-168, K50A)", "T1 sequence": "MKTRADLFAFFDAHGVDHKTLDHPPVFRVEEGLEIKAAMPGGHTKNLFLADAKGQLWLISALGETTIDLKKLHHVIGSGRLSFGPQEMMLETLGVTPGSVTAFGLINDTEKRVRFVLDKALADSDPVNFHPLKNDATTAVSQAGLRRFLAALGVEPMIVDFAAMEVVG", "assay": "AUC; 1 mM MgCl2; 9.6 μM protein reaches about 36% bound; EMSA: 81 nM duplex annealed in 50 mM sodium phosphate pH 7.5, 150 mM NaCl, 0-114 μM protein, 1 h room temp, 16% native gel in TBE; NMR: same phosphate buffer, 1", "conditions": "protein: recombinant; tags: N-terminal His6 removed by thrombin; leaves Gly-Ser-His; hairpin; 7 bp stem, 3' ACCA single-stranded", "data": [{"binder": "CGGCGAGUUCGCUCGCCGACCA (structured_RNA)", "note": "[microhelixPro]", "values": [{"measurement": "binding signal", "result": "~8", "unit": "fold weaker than WT"}]}]}
